Measurements reported in paper PMC6431256 (Biochemistry, 2018).
Each block holds one binder with its values, some of them ahead of it. Non-standard residues stand in square brackets, D forms with d. No end group written: not given here. pT = C[C@@H](OP(=O)(O)O)[C@H](N)C(=O)O; pS = N[C@@H](COP(=O)(O)O)C(=O)O

Key:
full-length Pin1 = full-length Pin1 (human, UniProt Q13526 1-163); experiment: NMR titration
[1] = molecular target: Pin1 WW domain (Pin1WW, residues 1–41) (human, UniProt Q13526 1-41); experiment: NMR titration
Chain of Pin1 WW domain (Pin1WW, residues 1–41) (Q13526 1-41): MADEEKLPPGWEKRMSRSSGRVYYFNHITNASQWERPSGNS

Chain of full-length Pin1 (Q13526 whole entry, the tested form may be a part): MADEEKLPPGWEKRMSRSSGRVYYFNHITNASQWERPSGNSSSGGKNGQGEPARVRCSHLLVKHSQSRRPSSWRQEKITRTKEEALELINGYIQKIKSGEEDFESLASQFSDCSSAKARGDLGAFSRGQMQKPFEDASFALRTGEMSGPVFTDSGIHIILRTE

- Kd (full-length Pin1): 500 µM
- Kd [1]: 890 µM
B1: histone H1.1 phosphopeptide KKAVKpSPAKAKAW (peptide)
peptide: KKAVK[pS]PAKAKAW

- Kd (full-length Pin1): 180 µM
- Kd [1]: 111 µM
B2: histone H1.4 phosphopeptide KATGAApTPKKSAKW (peptide)
peptide: KATGAA[pT]PKKSAKW
